Consider 31 sequences from the supplement of paper PMC9170038.

The data set concerns MS2 coat protein. The experiment in a line: apparent KD of MS2 coat protein; designed switch direction (-1 OFF switch, 1 ON switch): -1; higher = weaker reporter binding. The essentials: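 The reported apparent KD is a per-design median over clusters, from curve fits of normalised cluster fluorescence. Protein titrations used SNAP-549-labelled MS2 coat protein, doubled from 0.7 or 1.5 nM to 3 µM, in Tris-HCl pH 7.5 buffer with KCl, MgCl2, BSA, DTT, tRNA and Tween-20, with no input, 200 uM small-molecule ligand, or an oligonucleotide input. The RNA switches were transcribed on Illumina chips by stalled E. coli RNA polymerase.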

[1] abbreviates: Eterna round: R95, input ligand: microRNA oligo, concentration not stated.
The mark [2] stands for this setting: Eterna round: R95, input ligand: FMN 200 uM.
Setting [3] is: Eterna round: R95, input ligand: none.
[4] abbreviates: input ligand: microRNA oligo, concentration not stated.

As to “GGUGUGCUAGGAUAUGCUUUGGGCUCGCUUACCUUCGUUUUACUUGAGGAUCACCCAAGUAGAAGGUGCUUGCC [salish99_ex2_r4_039] (Eterna round: R97, puzzle: Exclusion 2)”, the “apparent KD of MS2 coat protein” value by setting is: (input ligand: FMN 200 uM) 13.1 nM; (input ligand: none) 12.4 nM.
In the same order, the values of “GGUUACAAGCUAAGAUCCUACAUGAGGAUCACCCAUGUGGUCCGGUGACGUGAGUCACCGGACUUAGCUCGUCUUGU [salish99_S_TOV1_R5_002] (Eterna round: R97, puzzle: Sensor, turn-off variant 1)” are 75.4 nM and 80 nM.
As to “GGUUCACGAGGAUAUCGAUUUUAGUACAUGAGGAUCACCCAUGUUGUCCAGGUUUCGAUUCGAGAAGGCGUGAACC [LRO-Ex5-04] (puzzle: Exclusion 5)”, the “apparent KD of MS2 coat protein” value under setting [1] was found to be 20.8 nM.
“GGUUGACAUGAGGAUCACCCAUGUGAGGAUAUGCGAGAGAAAAAAGUGAGGAAGAAGAGCAGAAGGCGCUGUCG [salish99-ex1_r3_012] (puzzle: Exclusion 1)”: the “apparent KD of MS2 coat protein” value runs as follows: under setting [2], 99.4 nM; under setting [1], 134 nM; under setting [3], 117 nM.
Consider “GGUUGGCGAGGAUAUACAUGAGGAUCACCCAUGUGAAAAUAAAGUGAGGAAAAGAAAAGUAGAAGGCGCUGACG [Mat - Exclusion 3 - Mod of Salish D55] (puzzle: Exclusion 3)”, for which the “apparent KD of MS2 coat protein” value runs as follows: under setting [2], 158 nM; under setting [1], 72.7 nM; under setting [3], 118 nM.
In the same order, the values of “GGUUGGCGAGGAUAUACAUGAGGAUCACCCAUGUGAGAGAAAAAAGUGAGGAAGAAAAGUAGAAGGCGCUGACA [salish99_ex3_r3_046] (puzzle: Exclusion 3)” are 188 nM, 43.9 nM and 54.1 nM.
Regarding “GGUUGGCGAGGAUAUACAUGAGGAUCACCCAUGUGAGAGAAAUAAGUGAGGAAGAAAAGUAGAAGGCGCUGACG [salish99_ex3_r3_014] (puzzle: Exclusion 3)”, the “apparent KD of MS2 coat protein” value runs as follows: under setting [2], 222 nM; under setting [1], 59.4 nM; under setting [3], 79.2 nM.
The like results for “GGUUGGCGAGGAUAUACAUGAGGAUCACCCAUGUGAGAGUAAAAAGUGAGGAAGAAAAGUAGAAGGCGCUGACG [salish99_ex3_r3_011] (puzzle: Exclusion 3)” were, in that order, 68.6 nM, 36.3 nM and 44 nM.
As to “GGUUGGCGAGGAUAUACAUGAGGAUCACCCAUGUGAUAGAAAAAAGUGAGGAAGAAAAGUAGAAGGCGCUGACG [salish99_ex3_r3_009] (puzzle: Exclusion 3)”, the “apparent KD of MS2 coat protein” value was 723 nM under setting [2], 50.1 nM under setting [1] and 187 nM under setting [3].
Turning to “GGUUGGCGAGGAUAUACAUGAGGAUCACCCAUGUGAUCCUAAGGCUGAUCAAGCCUAUGUAGAAGGCGCAAAUC [salish99_ex3_r4_009] (Eterna round: R97, puzzle: Exclusion 3)”, the “apparent KD of MS2 coat protein” value by setting is: (input ligand: FMN 200 uM) 49.7 nM; (input ligand: none) 260 nM.
Take “GGUUGGCGAGGAUAUACAUGAGGAUCACCCAUGUGGUCCUAAGGCUGAUCAAGCCUAUGUAGAAGGCGCAAAUC [salish99_ex3_r4_010] (Eterna round: R97, puzzle: Exclusion 3)”: the “apparent KD of MS2 coat protein” value (input ligand: FMN 200 uM) was 37.7 nM and the “apparent KD of MS2 coat protein” value (input ligand: none) came to 223 nM.
For the sequence “GGUUGGCGAGGAUAUACAUGAGGAUCACCCAUGUGGUCCUGUGGCUGGUCUAAACUUUGUAGAAGGCGCGGGUC [salish99_ex3_r4_022] (Eterna round: R97, puzzle: Exclusion 3)”, the “apparent KD of MS2 coat protein” value by setting is: (input ligand: FMN 200 uM) 84.9 nM; (input ligand: none) 78.1 nM.
On to “GUAAACGAAGAGGAUAUAUGAUAUCAAAGCUUCAUAGAAGGCUUCACAUGAGGAUCACCCAUGUGAUCUUCAAG [Mat - Exclusion 6 - JL Mod - D25] (Eterna round: R97, puzzle: Exclusion 6)”, for which the “apparent KD of MS2 coat protein” value reads like this: (input ligand: FMN 200 uM) 354 nM; (input ligand: none) 71.5 nM.
On to “GUAAAGUGAGGAUAUGGUAAAUUAAUUAUUAAUUAAUUAAUCCAGAAGGCACAUGAGGAUCACCCAUGUAAUUG [Mat - Exclusion 4 - D86] (puzzle: Exclusion 4)”, for which, under setting [1], the “apparent KD of MS2 coat protein” value was found to be 22.2 nM.
“GUAACAUGCUGGUGAUCAUACAUGAGGAUCACCCAUGUAACAAGCUUUUUGUUCGUCUUAAUUUAAUUGAUUACUAG [Stov1/8-B2] (Eterna round: R97, puzzle: Sensor, turn-off variant 1)”: the “apparent KD of MS2 coat protein” value worked out at 202 nM (input ligand: FMN 200 uM) and 196 nM (input ligand: none).
In the same order, the values of “GUAAUCUUAGGAUAUUUACGGGUCGACAUGAGGAUCACCCAUGUACCCACGUAGGCCUGAGAAGAAGGAAGAUGAC [EX5 C.24] (Eterna round: R97, puzzle: Exclusion 5)” are 22.1 nM and 14.5 nM.
Regarding “GUACUACGAGGAUAUAUAUAAUGGGAAGCCCAGGCCAUUGCACAUGAGGAUCACCCAUGUAGAAGGCGUGGUCA [Eternabot (L2) Solution 28] (Eterna round: R97, puzzle: Exclusion 2)”, the “apparent KD of MS2 coat protein” value runs as follows: (input ligand: FMN 200 uM) 40.3 nM; (input ligand: none) 16.7 nM.
For “GUACUGAGGCUUUGCUUUAGUCGUACAUGAGGAUCACCCAUGUAGGAUAUGGUAGGCUUUGCUUACCAGAAGGACAGAGUGAUC [JL EXNG3 1.22] (Eterna round: R96, puzzle: Exclusion NG 3)”, the “apparent KD of MS2 coat protein” value under setting [4] was determined as 188 nM.
As to “GUAGAGUAAGGAUAUCGUGAAUAGGAUAGAAUGGUUAGAAACGAGAAGGUACAUGAGGAUCACCCAUGUAAUGU [Excluse me!!!! 17 - Jieux - Exclusion 4] (puzzle: Exclusion 4)”, the “apparent KD of MS2 coat protein” value under setting [1] is 20.8 nM.
On the same count and under the same terms, as for “GUAGAGUAAGGAUAUGGUGAAUAGGAUAGAAUGGUUAGAAACUAGAAGGUACAUGAGGAUCACCCAUGUAAUGU [Excluse me!!!! 23 - Jieux - Exclusion 4] (puzzle: Exclusion 4)”, the figure is 20.8 nM.
For “GUAGAGUCAGGAUAUACAAAACCAUCGAAAGAUGGAUCCAUACAUGAGGAUCACCCAUGUAGAAGGGACUCUAC [Eli x2 4.17] (Eterna round: R97, puzzle: Exclusion 2)”, the “apparent KD of MS2 coat protein” value amounted to 21 nM (input ligand: FMN 200 uM) and 17.1 nM (input ligand: none).
Turning to “GUAGAGUCAGGAUAUACAAGAUCGAAAGAUCAAAGAUCCAUACAUGAGGAUCACCCAUGUAGAAGGGACUCUAC [Eli x2 4.10] (Eterna round: R97, puzzle: Exclusion 2)”, the “apparent KD of MS2 coat protein” value is, setting by setting: (input ligand: FMN 200 uM) 73.5 nM; (input ligand: none) 22.4 nM.
In the same order, the values of “GUAGAGUCAGGAUAUACAAGAUCGAAAGAUCGGCGAUCCAUACAUGAGGAUCACCCAUGUAGAAGGGACUCUAC [Eli x2 4.003] (Eterna round: R97, puzzle: Exclusion 2)” are 560 nM and 33.4 nM.
Consider “GUAGAGUCAGGAUAUACGAGAUCGAUAGAUCGGCGAUCCCUACAUGAGGAUCACCCAUGUAGAAGGGACUCUAC [Mat - Exclusion 2 - Eli Mod - D12] (Eterna round: R97, puzzle: Exclusion 2)”, for which the “apparent KD of MS2 coat protein” value by setting is: (input ligand: FMN 200 uM) 37.6 nM; (input ligand: none) 15.6 nM.
With “GUAGAGUGAGGAUAUACGAGAUCGAUAGAUCGGCGAUCCAAACAUGAGGAUCACCCAUGUAGAAGGCACUCUAC [Mat - Exclusion 2 - Eli Mod - D6] (Eterna round: R97, puzzle: Exclusion 2)”, the “apparent KD of MS2 coat protein” value (input ligand: FMN 200 uM) was 455 nM and the “apparent KD of MS2 coat protein” value (input ligand: none) amounted to 90.4 nM.
For “GUAGGUUAAGUAAGGAUAUACCUCUGGAAACAGAGGUAGAAGGUACAUGAGGAUCACCCAUGUUUCUCUUUUGC [Mod of Eli 6 - Jieux - Brourd's mod of Exclusion 4] (Eterna round: R97, puzzle: Brourd's mod of Exclusion 4)”, the “apparent KD of MS2 coat protein” value worked out at 21.8 nM (input ligand: FMN 200 uM) and 18.7 nM (input ligand: none).
As for “GUAUAACAUGUAGGAUAUGCGUGGCGAAGCUAUGCAGAAGGACAUGAGGAUCACCCAUGUAAUAGCGUCUGCGUACAGAUGCAA [Mat - Exclusion NG 1 - Mod of JL - D90] (Eterna round: R96, puzzle: Exclusion NG 1)”, the “apparent KD of MS2 coat protein” value (input ligand: FMN 200 uM) was 134 nM, the “apparent KD of MS2 coat protein” value under setting [4] was 27.9 nM and the “apparent KD of MS2 coat protein” value (input ligand: none) is 40.8 nM.
In the case of “GUAUAACUACACGGGCUCAACAUGAGGAUCACCCAUGUCUUAUACGCAAGCUUUUUGCUUGUCUUAUCUGUCCGUGA [Tibimaesan] (puzzle: Sensor v3, turn-off variant 1)”, the “apparent KD of MS2 coat protein” value by setting is: under setting [2], 12.6 nM; under setting [1], 11.9 nM; under setting [3], 12.3 nM.
“GUAUGAGGAGGAUAUACGUAUCCUUGACCCUGCUAGCGCGGACAUGAGGAUCACCCAUGUAGAAGGUUUCGACA [Eternabot (L1) Solution 46] (Eterna round: R97, puzzle: Exclusion 2)”: the “apparent KD of MS2 coat protein” value runs as follows: (input ligand: FMN 200 uM) 28.8 nM; (input ligand: none) 38.6 nM.
In the case of “GUAUGGAGAGUGAGGAUAUUUCCUGAGUGAUCAGCGAAGAAGGUACAUGAGGAUCACCCAUGUAGGUGGACUAA [Eternabot (L1) Solution 14] (Eterna round: R97, puzzle: Brourd's mod of Exclusion 4)”, the “apparent KD of MS2 coat protein” value by setting is: (input ligand: FMN 200 uM) 82.4 nM; (input ligand: none) 70.5 nM.
As to “GUAUGUGACGAGGAUAUCACCUUGUUACUUAGAUGAGAAGGCGUCACAUGAGGAUCACCCAUGUGAUGAAAAGA [EX6 A.14] (Eterna round: R97, puzzle: Exclusion 6)”, the “apparent KD of MS2 coat protein” value was determined as 27.4 nM (input ligand: FMN 200 uM) and 21.4 nM (input ligand: none).
